Data published in article PMC6163455 (Biomolecules, 2018).

System: CHO-K1 cells
Experiment: cell fractionation and anti-β-lactamase immunoblotting
Type: cell-based, Chinese hamster
Settings: 8 µM, 1.5 h at 37 °C, digitonin cytosol extraction, 4 µg aliquots, anti-β-lactamase antibody, Figure S1
Protocol: Supplementary Information
Supplementary Figures: β-Lactamase Tools for Establishing Cell Internalization and Cytosolic
Delivery of Cell Penetrating Peptides
Figure S1. Verification of cell penetrating peptides (CPP)-mediated β-lactamase internalization by immunoblotting. MW: molecular weight.
Aliquots (4 µg) of cytosolic and membrane soluble CHO-K1 cell fractions from β-lactamase assays were separated by sodium dodecyl sulfate–polyacrylamide gel electrophoresis (SDS-PAGE) through a 4-12% (w/v) polyacrylamide Bis-Tris gel, transferred to polyvinylidene difluoride (PVDF) membrane, and immunoblotted. β-lactamase conjugated (e.g., 1746_SpyT/SpyC_BLA) or fused (e.g., 1746_BLA recombinant) to 1746c27 and 1746 Phylomer cell penetrating peptides (CPPs) was detected in the cytosolic fraction to varying extents, while TAT-conjugated β-lactamase was predominantly detected in the membrane fraction of cell lysates. […]
delivered into the cytosol by the 1746 CPP. Internalization of unconjugated SpyC_BLA protein was not detected, either on its own (SpyC_BLA (no CPP)) or in the presence of 1746c27 peptide (1746c27, SpyC_BLA), illustrating there is no bystander uptake effect. […]
Aliquots of extracted fractions (4 µg) were separated through a 4–12% Bis-Tris gel (Invitrogen, Carlsbad, CA, USA). Protein expression in the fractions was detected using monoclonal anti-β- […]

B1: 1746_BLA: recombinant fusion of phylomer CPP 1746 with β-lactamase (protein)
chain: MASPLKPKKPKTQEKKKKQPPKPKKPKTQEKKKKQPPKPKRASSGSHHHHHHGATLEVLFQGPGGSHPETLVKVKDAEDQLGARVGYIELDLNSGKILESFRPEERFPMMSTFKVLLCGAVLSRIDAGQEQLGRRIHYSQNDLVEYSPVTEKHLTDGMTVRELCSAAITMSDNTAANLLLTTIGGPKELTAFLHNMGDHVTRLDRWEPELNEAIPNDERDTTTPAAMATTLRKLLTGELLTLASRQQLIDWMEADKVAGPLLRSALPAGWFIADKSGAGERGSRGIIAALGPDGKPSRIVVIYTTGSQATMDERNRQIAEIGASLIKHWQLGSASGTTGATSG
  β-lactamase detected in cytosolic and membrane cell fractions (immunoblot): very strong signal in the cytosolic fractions
